Where a chain is given by its changes, count along the chain named. Numbers in names are those of the source. Square brackets hold non-standard residues; d marks the D form. pS = N[C@@H](COP(=O)(O)O)C(=O)O
B1: S780D GST-Kex2p C-tail fusion protein (domain or fragment, yeast, UniProt P13134 700-814, looked up)
chain: KSRRRIRRSRAETYEFDIIDTDSEYDSTLDNGTSGITEPEEVEDFDFDLSDEDHLASLSSSENGDAEHTIDSVLTNENPFDDPIKQKFPNDANAESASNKLQELQPDVPPSSGRS
B2: WT GST-Kex2p C-tail fusion protein (domain or fragment, yeast, UniProt P13134 700-814, looked up)
chain: B1 chain with D81S
B3: Gga2p VHS-GAT-His6 (domain or fragment, yeast, UniProt P38817 1-336, looked up)
chain: MSHPHSHSIYLSELPVRKPQALGNPLLRKIQRACRMSLAEPDLALNLDIADYINEKQGAAPRDAAIALAKLINNRESHVAIFALSLLDVLVKNCGYPFHLQISRKEFLNELVKRFPGHPPLRYSKIQRLILTAIEEWYQTICKHSSYKNDMGYIRDMHRLLKYKGYAFPKISESDLAVLKPSNQLKTASEIQKEQEIAQAAKLEELIRRGKPEDLREANKLMKIMAGFKEDNAVQAKQAISSELNKLKRKADLLNEMLESPDSQNWDNETTQELHSALKVAQPKFQKIIEEEQEDDALVQDLLKFNDTVNQLLEKFNLLKNGDSNAASQIHPSHVS
B4: Phosphopeptide PP2 (peptide)
peptide: Ac-CTNENPF[pS]DPIKQKF-NH2
SMILES: CC[C@H](C)[C@H](NC(=O)[C@@H]1CCCN1C(=O)[C@H](CC(=O)O)NC(=O)[C@H](COP(=O)(O)O)NC(=O)[C@H](Cc1ccccc1)NC(=O)[C@@H]1CCCN1C(=O)[C@H](CC(N)=O)NC(=O)[C@H](CCC(=O)O)NC(=O)[C@H](CC(N)=O)NC(=O)[C@@H](NC(=O)[C@H](CS)NC(C)=O)[C@@H](C)O)C(=O)N[C@@H](CCCCN)C(=O)N[C@@H](CCC(N)=O)C(=O)N[C@@H](CCCCN)C(=O)N[C@@H](Cc1ccccc1)C(N)=O

Tests used:
[1] = target: S780A GST-Kex2p C-tail fusion protein (yeast) (UniProt P13134); experiment: ITC
[2] = target: S780A GST-Kex2p C-tail fusion protein (yeast) (UniProt P13134); experiment: pull-down
Gga2p VHS-GAT-His6 [3] = target: B3; experiment: ITC
[4] = target: B1; experiment: pull-down
Gga2p VHS-GAT-His6 [5] = target: B3; experiment: pull-down

Molecule	Kd (Gga2p VHS-GAT-His6 [3]) [µM]	binding result (Gga2p VHS-GAT-His6 [5])	other results
Gga2p VHS-GAT-His6 (from UniProt P38817 1-336) (domain or fragment)			Kd [1]: 400 µM; fold lower binding than the WT tail [2]: 2 fold; t1/2 of dissociation [2]: 40 min
B1	6.6		
B2	10		
B3			fold higher binding than the WT tail [4]: 2 fold
B4		binds	
Ac-CLTNENPFSDPIKQKF-NH2 [Nonphosphorylated peptide NPP]		binds	

Source: article PMC3571872 (Molecular Biology of the Cell, 2013)
